# Experimental data: patent US8586538B2, “Method of treating a patient suffering from a bleeding disorder comprising administering an antibody against the A3-C1 of FVIII” (Stichting Sanquin Bloedvoorziening, priority 2002, dated 2013)
# T1: interaction between FVIII light chain and LRP cluster II (Homo sapiens, UniProt P00451)
# T1 construct: Recombinant LRP clusters II or IV (1 pmol/well) were adsorbed onto microtiter wells; made in house; host or cells: LRP cluster II: BHK cells; FVIII light chain: plasma-derived
# T1 sequence (P00451 1668-2351): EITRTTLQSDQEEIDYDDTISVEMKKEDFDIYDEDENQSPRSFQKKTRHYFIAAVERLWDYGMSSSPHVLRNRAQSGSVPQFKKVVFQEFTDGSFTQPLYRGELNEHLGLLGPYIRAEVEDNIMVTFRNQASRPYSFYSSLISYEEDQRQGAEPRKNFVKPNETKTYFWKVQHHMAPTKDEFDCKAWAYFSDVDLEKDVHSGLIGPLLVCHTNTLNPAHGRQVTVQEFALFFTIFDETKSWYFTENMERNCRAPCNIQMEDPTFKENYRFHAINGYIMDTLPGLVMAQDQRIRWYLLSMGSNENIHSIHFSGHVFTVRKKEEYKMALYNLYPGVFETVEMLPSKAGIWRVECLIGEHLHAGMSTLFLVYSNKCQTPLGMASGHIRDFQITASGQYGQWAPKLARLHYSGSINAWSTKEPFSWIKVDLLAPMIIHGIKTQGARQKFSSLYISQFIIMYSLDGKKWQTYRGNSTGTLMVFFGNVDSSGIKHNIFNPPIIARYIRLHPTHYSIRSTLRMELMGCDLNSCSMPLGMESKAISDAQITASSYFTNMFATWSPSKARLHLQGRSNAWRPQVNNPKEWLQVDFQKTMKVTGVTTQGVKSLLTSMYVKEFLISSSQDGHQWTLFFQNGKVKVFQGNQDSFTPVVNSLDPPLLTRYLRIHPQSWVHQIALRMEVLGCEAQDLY
# B1: scFv KM41: scFv antibody fragment directed against FVIII region Arg^1803-Lys^1818 (protein)
# scFv: QVQLLQSAADVKKPGASVKVSCTASGYIFTSYDIDWVRQATGQGLEWMGWMNPNSGNAGFAQKFKGRLTLTRDTSTSTAYMELRRLESEDTAVYYCARSTPHSYSGSGLPPTSDSWGQGTLVTVSSGGGGSGGGGSGGGGSEIVLTQSPGTLSLSPGERATLSCRASQSVSSSFLGWYQQKPGQAPRLLIYGASSRATGIPDRFSGSGSGTDFTLTISRLEPEDFAVYYCQQYGISPLTFGGGTKLEIKRAAAEQKLISEEDLNGAAHHHHHH
# Target: T1, interaction between FVIII light chain and LRP cluster II
# Experiment: Solid-phase competition: FVIII light chain binding to immobilized LRP cluster II
# Conditions: FVIII light chain 25 nM
# Description: FIG. 4. Effect of scFv antibody fragments on the interaction between FVIII light chain and LRP. A, FVIII light chain (LCh) (25 nM) was incubated with immobilized LRP cluster II (1 pmol/well) in a volume of 50 μl in 150 mM NaCl, 5 mM CaCl2, 1% (w/v) HSA, 0.1% Tween® 20, and 50 mM Tris (pH 7.4) in the presence of various concentrations (0-100 nM) of scFv KM41 (closed circles) or scFv KM36 (open circles) for 2 h at 37° C. After washing with the same buffer, bound FVIII light chain was quantified by incubation with peroxidase-conjugated anti-FVIII antibody CLB-CAg 12 for 15 min at 37° C. Residual binding is expressed as the percentage of binding in the absence of competitor and is corrected for nonspecific binding (less than 5% relative to binding to LRP cluster II-immobilized wells). Data represent the mean±S.D. of three experiments. B, FVIII light chain (50 nM) was incubated with immobilized LRP (16 fmol/mm^2) as described in the legend of FIG. 1. Binding was assessed in the absence (curve 1) or in the presence of increasing concentrations of scFv KM41 (20, 60, 300, 500 nM, curves 2-5, respectively). Complexes were allowed to form for 30 min before SPR analysis.
# FIG. 5. Effect of scFv KM33 on the interaction between FVIII light chain and LRP. FVIII light chain (LCh) (25 nM) was incubated with immobilized LRP cluster II (1 pmol/well) in a volume of 50 μl in 150 mM NaCl, 5 mM CaCl2, 1% (w/v) HSA, 0.1% Tween® 20, and 50 mM Tris (pH 7.4) in the presence of various concentrations (0-30 nM) of scFv KM36 (open circles) or scFv KM33 (closed circles) for 2 h at 37° C. After washing with the same buffer, bound FVIII Light chain was quantified by incubation with peroxidase-conjugated anti-FVIII antibody CLB-CAg 12 for 15 min at 37° C. Residual binding is expressed as the percentage of binding in the absence of competitor and is corrected for nonspecific binding (less than 5% relative to binding to cluster-coated wells). Data represent the mean±S.D. of three experiments.
# Recombinant LRP clusters II or IV (1 pmol/well) were adsorbed onto microtiter wells in 50 mM NaHCO3 (pH 9.8) in a volume of 50 μl for 16 h at 4° C. Wells were blocked with 2% (w/v) HSA, 150 mM NaCl, 5 mM CaCl2, and 50 mM Tris (pH 7.4) in a volume of 200 μl for 1 h at 37° C. After three rapid washes (less than 5 seconds each) with 150 mM NaCl, 5 mM CaCl2, 0.1% (v/v) Tween® 20, and 50 mM Tris (pH 7.4), FVIII light chain or its derivatives were incubated at various concentrations in a volume of 50 μl in a buffer containing 150 mM NaCl, 5 mM CaCl2, 1% (w/v) HSA, 0.1% (v/v) Tween® 20, and 50 mM Tris (pH 7.4) for 2 h. at 37° C. Bound ligand was detected by incubating with peroxidase-conjugated monoclonal antibody CLB-CAg 12 in the same buffer for 15 min at 37° C. […] In competition experiments, FVIII light chain (25 nM) was incubated with wells containing immobilized LRP clusters, either in the presence or absence of serial dilutions of competitor in a volume of 50 μl for 2 h at 37° C. Residual FVIII binding was detected as described above. Data were corrected for binding to empty microtiter wells, which was less than 5% relative to binding to wells containing immobilized LRP clusters.
# (Note to Table II: Effect of FVIII a3-A3-C1 fragment derived synthetic peptides on the interaction between FVIII light chain and LRP cluster II. FVIII light chain (25 nM) was incubated with immobilized LRP cluster II (1 pmol/well) in a volume of 50 μl in 150 mM NaCl, 5 mM CaCl2, 1% (w/v) HSA, 0.1% Tween® 20, and 50 mM Tris (pH 7.4) in the presence or absence of various concentrations of synthetic peptide (0-1 mM) for 2 h at 37° C. After washing with the same buffer, bound FVIII light chain was quantified by incubation with peroxidase-conjugated anti-FVIII antibody CLB-CAg 12 for 15 min at 37° C. Half-maximum inhibition constants (IC50) represent the mean values±S.D. of three experiments.)
molecule,measurement,value
B1,Effect on binding of FVIII light chain to immobilized LRP cluster II,inhibited the binding
